These are literature values, as cited in publication PMC9249222.

As a reminder, the Kd is the free concentration of one partner at which half of the binding sites on the other are occupied at equilibrium, for simple one-to-one binding.

Data set [1] concerns the target UBR5 HECT PAM2L (Homo sapiens) (UniProt O95071).
Data set [2] has as its target PAIP PAM2 (Homo sapiens) (UniProt Q9H074).

UBR5 MLLE, sequence (O95071 2377-2454): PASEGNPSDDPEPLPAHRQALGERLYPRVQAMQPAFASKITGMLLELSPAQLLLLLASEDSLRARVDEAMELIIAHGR
PAIP PAM2 (Homo sapiens), sequence (Q9H074 116-143): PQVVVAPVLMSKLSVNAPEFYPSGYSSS

As to UBR5 MLLE (from UniProt O95071), the Kd in data set [1] was 50 µM; in data set [2], 3.4 µM.
